The values below come from patent US20240309103A1 (Regeneron, published 2024).

The target of experiment [1] is T1, human NPR1 extracellular domain expressed with a C-terminal mouse IgG2a (hNPR1-mFc) (human).
T1 construct: also called hNPR1-Fc; human NPR1 dimer
T1 chain: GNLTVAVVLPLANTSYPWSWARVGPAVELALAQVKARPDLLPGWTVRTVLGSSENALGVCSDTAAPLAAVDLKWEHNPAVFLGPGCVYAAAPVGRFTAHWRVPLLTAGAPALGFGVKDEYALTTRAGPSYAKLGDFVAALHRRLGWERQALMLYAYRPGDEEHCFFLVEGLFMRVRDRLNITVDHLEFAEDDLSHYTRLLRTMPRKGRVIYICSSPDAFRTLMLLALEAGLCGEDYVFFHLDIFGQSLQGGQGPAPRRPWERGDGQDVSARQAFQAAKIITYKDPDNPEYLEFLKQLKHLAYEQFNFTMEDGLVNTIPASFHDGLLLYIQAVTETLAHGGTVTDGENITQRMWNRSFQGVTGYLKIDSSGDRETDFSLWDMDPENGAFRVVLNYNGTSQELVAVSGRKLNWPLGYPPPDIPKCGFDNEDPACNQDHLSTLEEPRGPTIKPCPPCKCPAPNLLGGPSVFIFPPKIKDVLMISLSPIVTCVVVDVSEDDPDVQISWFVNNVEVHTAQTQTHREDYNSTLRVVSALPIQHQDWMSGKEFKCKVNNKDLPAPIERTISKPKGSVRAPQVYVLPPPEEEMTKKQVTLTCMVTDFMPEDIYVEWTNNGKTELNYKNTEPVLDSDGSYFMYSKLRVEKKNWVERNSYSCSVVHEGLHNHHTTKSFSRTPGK
Briefly: SPR, mAb captured, 37 C. Put shortly: (§1)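 Equilibrium dissociation constants come from surface plasmon resonance, with the NPR1 reagent flowed over captured antibody. The capture layer was anti-human Fc (monoclonal or goat polyclonal), amine-coupled onto a CM5 chip. Buffer was HEPES-buffered saline with EDTA and 0.05% Tween-20, pH 7.4.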
(SPR reads the build-up and loss of mass on a sensor chip optically.)

Experiment [2] has as its target T2, monkey NPR1 extracellular domain expressed with a C-terminal myc-myc-hexahistidine (mfNPR1-MMH) (monkey, UniProt P16066 33-473 (human entry)).
T2 construct: also called monomeric monkey NPR1
T2 chain: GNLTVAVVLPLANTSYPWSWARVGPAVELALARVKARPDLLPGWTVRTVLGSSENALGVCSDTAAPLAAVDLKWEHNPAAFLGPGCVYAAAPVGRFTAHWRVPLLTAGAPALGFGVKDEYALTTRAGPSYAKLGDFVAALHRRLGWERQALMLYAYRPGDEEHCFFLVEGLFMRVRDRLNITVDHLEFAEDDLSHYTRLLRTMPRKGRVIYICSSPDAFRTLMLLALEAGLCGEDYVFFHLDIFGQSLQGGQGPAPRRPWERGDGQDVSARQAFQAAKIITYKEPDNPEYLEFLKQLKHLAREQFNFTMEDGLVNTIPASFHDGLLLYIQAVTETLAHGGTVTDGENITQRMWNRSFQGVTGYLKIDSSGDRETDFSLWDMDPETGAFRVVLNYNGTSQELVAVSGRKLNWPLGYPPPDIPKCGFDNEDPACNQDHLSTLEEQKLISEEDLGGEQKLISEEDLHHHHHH
The experiment is described as follows: SPR, mAb captured, 37 C. The procedure, abridged:
as §1

The target of experiment [3] is T3, mouse NPR1 extracellular domain expressed with a C-terminal myc-myc-hexahistidine (mNPR1-MMH) (mouse, UniProt P18293 29-469). Briefly: SPR, mAb captured, 37 C. Put shortly: as §1
Target sequence in this assay (P18293 other isoform, or with tags, fused parts or gaps): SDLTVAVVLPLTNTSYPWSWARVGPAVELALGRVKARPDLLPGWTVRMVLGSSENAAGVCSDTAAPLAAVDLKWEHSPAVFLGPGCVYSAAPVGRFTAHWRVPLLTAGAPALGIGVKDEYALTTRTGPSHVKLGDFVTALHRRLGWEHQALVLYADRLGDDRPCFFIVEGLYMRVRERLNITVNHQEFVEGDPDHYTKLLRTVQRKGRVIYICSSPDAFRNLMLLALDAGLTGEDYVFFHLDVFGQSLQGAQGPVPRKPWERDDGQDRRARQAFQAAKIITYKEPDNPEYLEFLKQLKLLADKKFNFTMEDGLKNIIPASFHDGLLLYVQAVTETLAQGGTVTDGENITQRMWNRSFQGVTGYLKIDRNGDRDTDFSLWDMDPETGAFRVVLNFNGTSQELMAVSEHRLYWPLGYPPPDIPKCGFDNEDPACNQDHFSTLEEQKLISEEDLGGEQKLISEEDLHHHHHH
The target in experiment [4] is T4, human NPR1 extracellular domain expressed with a C-terminal myc-myc-hexahistidine (hNPR1-MMH) (human, UniProt P16066 33-473).
T4 construct: also called hNPR.mmh; monomeric human NPR1
The experiment is described as follows: SPR, mAb captured, 37 C. The procedure, abridged: as §1

In experiment [5] the target is T1, human NPR1 extracellular domain …. The experiment is described as follows: SPR, mAb captured, 25 C. The procedure, abridged:
as §1

Experiment [6] concerns the target T2, monkey NPR1 extracellular domain …. The experiment is described as follows: SPR, mAb captured, 25 C. The procedure, abridged:
as §1

In experiment [7] the target is T3, mouse NPR1 extracellular domain …. Briefly: SPR, mAb captured, 25 C. The procedure, abridged:
as §1

Experiment [8] concerns the target T4, human NPR1 extracellular domain …. Briefly: SPR, mAb captured, 25 C. The procedure, abridged:
as §1
Target sequence in this assay (P16066 other isoform, or with tags, fused parts or gaps): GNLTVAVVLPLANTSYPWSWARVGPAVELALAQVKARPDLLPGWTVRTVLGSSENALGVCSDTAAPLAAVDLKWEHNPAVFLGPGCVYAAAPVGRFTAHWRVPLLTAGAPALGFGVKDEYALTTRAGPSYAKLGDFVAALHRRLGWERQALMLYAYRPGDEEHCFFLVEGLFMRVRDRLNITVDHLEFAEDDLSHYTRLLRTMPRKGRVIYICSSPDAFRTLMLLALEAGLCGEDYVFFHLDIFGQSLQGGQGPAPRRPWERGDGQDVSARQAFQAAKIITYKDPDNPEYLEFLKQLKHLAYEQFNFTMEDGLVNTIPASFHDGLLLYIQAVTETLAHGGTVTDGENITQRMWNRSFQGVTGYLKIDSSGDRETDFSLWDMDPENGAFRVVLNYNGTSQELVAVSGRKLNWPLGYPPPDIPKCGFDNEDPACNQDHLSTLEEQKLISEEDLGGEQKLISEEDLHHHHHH

Experiment [9] has as its target T5, mouse NPR1 extracellular domain expressed with a C-terminal mouse IgG2a (mNPR1-mFc) (mouse).
T5 chain: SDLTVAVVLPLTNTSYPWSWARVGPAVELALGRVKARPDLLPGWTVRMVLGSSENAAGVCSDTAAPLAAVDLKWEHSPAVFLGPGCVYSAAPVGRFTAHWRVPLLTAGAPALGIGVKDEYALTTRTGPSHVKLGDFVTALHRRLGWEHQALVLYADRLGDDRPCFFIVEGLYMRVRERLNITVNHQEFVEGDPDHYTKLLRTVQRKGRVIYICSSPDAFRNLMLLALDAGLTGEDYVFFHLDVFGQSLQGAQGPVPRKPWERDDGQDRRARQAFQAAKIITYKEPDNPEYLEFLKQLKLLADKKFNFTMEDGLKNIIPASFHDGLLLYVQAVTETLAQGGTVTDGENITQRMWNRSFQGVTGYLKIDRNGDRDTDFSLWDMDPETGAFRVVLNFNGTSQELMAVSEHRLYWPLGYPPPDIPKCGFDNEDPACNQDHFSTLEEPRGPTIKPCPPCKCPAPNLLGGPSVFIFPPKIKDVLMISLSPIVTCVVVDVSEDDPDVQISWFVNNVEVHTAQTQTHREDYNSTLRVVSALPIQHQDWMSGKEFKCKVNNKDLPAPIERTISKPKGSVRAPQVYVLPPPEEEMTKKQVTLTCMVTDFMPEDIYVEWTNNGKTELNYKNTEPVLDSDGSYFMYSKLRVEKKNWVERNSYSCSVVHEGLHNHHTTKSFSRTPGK
The experiment is described as follows: SPR, Tables 21 to 26. The procedure, abridged:
as §1

The target in experiment [10] is T1, human NPR1 extracellular domain …. The experiment is described as follows: SPR, mAb captured, 25 C; 25 C. How it is done: Equilibrium dissociation constant (KD) for different NPR1 reagents binding to purified anti-NPR1 monoclonal antibodies (mAbs) were determined using a real-time surface plasmon resonance based Biacore 4000 biosensor. All binding studies were performed in 10 mM HEPES, 150 mM NaCl, 3 mM EDTA, and 0.05% v/v Surfactant Tween-20, pH 7.4 (HBS-ET) running buffer at 25° C. and 37° C. The Biacore CM5 sensor chip surface was first derivatized by amine coupling with either mouse anti-human Fc specific mAb (GE Healthcare, #BR100839) or goat anti-human Fcy specific polyclonal antibody (Jackson ImmunoResearch Laboratories, #BR-1008-39) to capture anti-NPR1 mAbs.

B1: mAb25508 (antibody, V domains shown)
VH: EVQLVESGGGVVRPGGSLRLSCAASGFNVDDYGMSWVRQIPGKGLEWISGINWNGGRIYYADSMKGRITISRDNAKNSLYLQMNSLRAEDTALYHCVRDQWLVRGLDYWGQGTLVTVSS
VL: DIQMTQSPSSLSASVGDRVTITCRASQGIYNYLAWFQQKPGKAPKSLIYAASSLQSGVPSKFSGSGSGTDFTLTISSLQPEDFATYYCQQYNTYPYTFGQGTKLEIK
Broadly, the Kd is the concentration at which binding is half-saturated. The term koff denotes the first-order rate constant of dissociation. A word on the kon: it is a measure of how fast the partners come together. By t½ is commonly meant the time in which the quantity being followed falls by half. As to B1, the “100 nM Ag Bound (RU)” value is 242 RU in experiment [1]; 275 RU in experiment [2]; 0 RU in [3]; 252 RU in experiment [4]; 211 RU in [5]; 213 RU in experiment [6]. Moreover, the results for the “100 nM Ag Bound (RU)” value in [7] and in experiment [8] were 0 RU and 192 RU, respectively. Moreover, the Kd in [1] came to 0.121 nM; in [2] it was 0.349 nM; in experiment [4] it was 0.49 nM; in experiment [5], 0.0868 nM; in [6], 0.187 nM; in experiment [8] it was 0.309 nM. Moreover, the koff amounted to 0.000101 s⁻¹ in experiment [1]; 0.000273 s⁻¹ in experiment [2]; 0.000222 s⁻¹ in [4]; 6.85e-05 s⁻¹ in [5]; 0.000132 s⁻¹ in experiment [6]; 0.000134 s⁻¹ in experiment [8]. The kon in experiment [1] turned out to be 838000 M⁻¹ s⁻¹; in experiment [2], 782000 M⁻¹ s⁻¹; in [4] it was 453000 M⁻¹ s⁻¹; in experiment [5], 789000 M⁻¹ s⁻¹; in experiment [6], 706000 M⁻¹ s⁻¹; in experiment [8], 432000 M⁻¹ s⁻¹. For the same molecule, the t½ was determined as 1.9 h in experiment [1]; 0.705 h in [2]; 0.868 h in [4]; 2.81 h in [5]; 1.46 h in [6]; 1.44 h in [8]. The figures for the binding result in experiment [7] and in experiment [9] were “no binding (tested: 100 nM)” and “no binding”, respectively.

B2: mAb22809 (antibody, V domains shown)
VH: QLQLRESGPGLVKPSETLSLTCTVSGGSINDNSFFWDWIRQTPGRGLEWIGNIFFDGNTYYTPSLKSRVIISVDMSQNQFSLRLTSVTAADTALYYCARHKRSMTAWGFFDYWGQGTLVTVSS
VL: DIQMTQSPSSLSASVGDRVTITCRASKRINTYLNWYQQKPGKAPKVLIYSASNLQSGVPSRFSGSGSGTDFTLTINSLQPEDFATYFCQQSFSAPPITFGQGTRLEIK
With B2, the “100 nM Ag Bound (RU)” value is -1 RU in experiment [1]; 1 RU in experiment [2]; 0 RU in [3]; -1 RU in experiment [4]; -2 RU in experiment [5]; 0 RU in experiment [6]. Also, the “100 nM Ag Bound (RU)” value in experiment [7] and in [8] was 0 RU in each case. Moreover, the binding result is “no binding (tested: 100 nM)” in experiment [6], “no binding (tested: 100 nM)” in experiment [7] and “no binding” in experiment [9].

B3: mAb25502 (antibody, V domains shown)
VH: QLQLQESGPGLVKPSETLSLTCTVSGGSISSSSYYWGWIRQPPGKGLEWIGSIYYSGSPYYIPSLKSRVTISVDTSKNQFSLKLSSVTAADTAMYYCARQGRGIARAGPFDYWGQGTLVTVSS
VL: DIQMTQSPSSLSASVGDRVTITCRASQGISNYLAWYQEKPGKVPKLLIYAASTLQSGVPSRFSGSGSGTDFTLTITSLQSEDVATYYCQKYNSAPPWTFGQGTKVEIK
B3: the “100 nM Ag Bound (RU)” value worked out at 6 RU in [2]; 0 RU in experiment [3]; 4 RU in [4]; 3 RU in experiment [6]; 0 RU in [7]; 2 RU in [8]. In addition, the binding result in experiment [4] was “no binding (tested: 100 nM)”; in experiment [6], “no binding (tested: 100 nM)”; in experiment [7], “no binding (tested: 100 nM)”; in experiment [9], “no binding”. The molecule further showed a Kd in [10] of 0.994 nM. This molecule also gave a koff in [10] of 8.74e-05 s⁻¹. Besides, in experiment [10], the kon was found to be 87900 M⁻¹ s⁻¹. Moreover, the t½ in experiment [10] was determined as 2.2 h.
